From patent publication US20240279345A1, “ALPHA 5 BETA 1 INTEGRIN BINDING AGENTS AND USES THEREOF” (PASITHEA THERAPEUTICS CORP., priority 2021, published 2024)

Experiments:
[1] = target: T1, recombinant mouse α5β1 integrin (mouse, UniProt P11688 45-999; P09055 21-728); test: ELISA, coated integrin, supernatant 1:10
T1 construct: bought recombinant heterodimer (R&D Systems cat. 7728-A5) coated on the plate; also called rm-α5β1
Experimental: Plates were washed 3 times with Wash Buffer (1× Tris Buffered Saline containing 0.05% Tween20), blocked with 2% BSA in 1×TBS (made from 10× Thermo Scientific Blocker BSA (10×) in TBS; Thermo Fisher Scientific, Waltham, MA, cat. no. 37520) for 2 hours at room temperature (RT) then incubated with hybridoma supernatants diluted 1:10 with Standard Diluent (2% BSA, 1×TBS, 0.05% Tween20). […] Absorbance 450 nm was measured.

[2] = target: recombinant human α5β1 integrin (human) (UniProt P08648); test: ELISA, coated integrin, supernatant 1:10
Sequence of recombinant human α5β1 integrin (human) (P08648 42-995 limits assumed, form in doubt, chain 1 of 2): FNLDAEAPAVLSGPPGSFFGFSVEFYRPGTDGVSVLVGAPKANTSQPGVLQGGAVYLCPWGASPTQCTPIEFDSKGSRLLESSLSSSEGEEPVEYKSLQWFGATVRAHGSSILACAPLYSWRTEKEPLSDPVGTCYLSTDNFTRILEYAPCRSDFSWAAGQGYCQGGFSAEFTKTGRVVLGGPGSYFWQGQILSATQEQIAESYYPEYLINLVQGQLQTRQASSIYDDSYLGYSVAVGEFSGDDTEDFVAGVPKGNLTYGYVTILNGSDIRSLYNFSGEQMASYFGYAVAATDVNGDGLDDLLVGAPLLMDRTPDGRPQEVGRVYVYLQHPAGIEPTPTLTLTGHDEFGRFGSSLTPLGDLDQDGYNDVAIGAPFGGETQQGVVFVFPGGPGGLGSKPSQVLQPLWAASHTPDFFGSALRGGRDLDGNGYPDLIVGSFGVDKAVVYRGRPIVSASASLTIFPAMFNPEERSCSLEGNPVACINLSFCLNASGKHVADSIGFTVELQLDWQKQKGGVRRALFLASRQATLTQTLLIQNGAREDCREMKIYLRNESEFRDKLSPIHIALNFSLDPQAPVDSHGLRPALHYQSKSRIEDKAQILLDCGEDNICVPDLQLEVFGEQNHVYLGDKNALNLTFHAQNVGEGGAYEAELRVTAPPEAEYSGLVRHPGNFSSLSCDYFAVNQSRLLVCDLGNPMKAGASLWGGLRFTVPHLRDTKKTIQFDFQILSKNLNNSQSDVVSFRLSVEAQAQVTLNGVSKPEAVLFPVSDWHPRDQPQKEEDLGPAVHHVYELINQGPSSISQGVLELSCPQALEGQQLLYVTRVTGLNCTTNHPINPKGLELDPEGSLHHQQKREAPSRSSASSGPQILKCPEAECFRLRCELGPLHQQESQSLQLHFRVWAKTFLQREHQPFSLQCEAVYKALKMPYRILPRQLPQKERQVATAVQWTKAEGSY
Sequence of recombinant human α5β1 integrin (human) (chain, as listed by the source limits assumed, form in doubt, chain 2 of 2): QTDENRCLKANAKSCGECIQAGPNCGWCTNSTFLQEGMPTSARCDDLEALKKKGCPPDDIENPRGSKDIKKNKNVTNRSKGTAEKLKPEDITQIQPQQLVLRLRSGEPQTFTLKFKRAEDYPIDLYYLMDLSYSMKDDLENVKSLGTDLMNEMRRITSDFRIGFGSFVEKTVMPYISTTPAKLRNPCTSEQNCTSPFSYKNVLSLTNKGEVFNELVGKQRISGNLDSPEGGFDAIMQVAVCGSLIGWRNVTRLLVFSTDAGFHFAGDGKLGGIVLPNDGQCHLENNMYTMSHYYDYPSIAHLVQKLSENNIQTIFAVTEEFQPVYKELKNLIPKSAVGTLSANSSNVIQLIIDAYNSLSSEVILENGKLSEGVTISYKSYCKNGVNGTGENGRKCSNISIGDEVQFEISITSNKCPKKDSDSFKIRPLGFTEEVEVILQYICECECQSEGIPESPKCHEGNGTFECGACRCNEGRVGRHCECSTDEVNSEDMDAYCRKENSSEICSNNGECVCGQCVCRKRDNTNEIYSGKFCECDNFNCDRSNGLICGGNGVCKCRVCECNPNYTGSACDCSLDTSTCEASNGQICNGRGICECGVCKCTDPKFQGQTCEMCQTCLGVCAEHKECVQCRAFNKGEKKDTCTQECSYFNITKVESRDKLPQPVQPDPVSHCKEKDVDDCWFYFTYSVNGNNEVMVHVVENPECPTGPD

[3] = target: recombinant human α4β1 integrin (human) (UniProt P13612); test: ELISA, coated integrin, supernatant 1:10
Sequence of recombinant human α4β1 integrin (human) (P13612 34-977 limits assumed, form in doubt, chain 1 of 2): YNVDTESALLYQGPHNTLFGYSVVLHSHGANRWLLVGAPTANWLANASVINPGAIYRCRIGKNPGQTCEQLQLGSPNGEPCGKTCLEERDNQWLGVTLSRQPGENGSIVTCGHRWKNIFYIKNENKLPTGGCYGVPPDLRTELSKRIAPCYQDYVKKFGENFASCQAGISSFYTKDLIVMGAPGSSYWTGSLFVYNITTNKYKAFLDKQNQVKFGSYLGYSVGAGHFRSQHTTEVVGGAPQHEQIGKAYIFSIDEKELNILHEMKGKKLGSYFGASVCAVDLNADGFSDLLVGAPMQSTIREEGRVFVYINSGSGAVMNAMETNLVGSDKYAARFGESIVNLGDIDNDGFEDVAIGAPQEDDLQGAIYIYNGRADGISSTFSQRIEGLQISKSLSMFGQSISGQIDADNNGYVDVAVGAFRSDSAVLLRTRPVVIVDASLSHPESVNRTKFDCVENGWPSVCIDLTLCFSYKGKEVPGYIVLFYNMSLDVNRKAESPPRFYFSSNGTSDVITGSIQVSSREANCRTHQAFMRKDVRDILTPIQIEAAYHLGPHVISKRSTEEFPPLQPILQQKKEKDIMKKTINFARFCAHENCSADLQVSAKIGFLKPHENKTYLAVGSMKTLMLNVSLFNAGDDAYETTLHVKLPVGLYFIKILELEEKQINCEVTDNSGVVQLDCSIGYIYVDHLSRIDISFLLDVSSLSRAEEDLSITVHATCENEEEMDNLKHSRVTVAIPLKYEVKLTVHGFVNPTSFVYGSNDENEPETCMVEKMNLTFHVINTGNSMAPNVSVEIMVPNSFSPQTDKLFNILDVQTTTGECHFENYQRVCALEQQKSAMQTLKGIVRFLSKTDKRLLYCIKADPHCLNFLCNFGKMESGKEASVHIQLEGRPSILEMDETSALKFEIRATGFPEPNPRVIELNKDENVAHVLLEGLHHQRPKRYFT

[4] = target: α5β1 integrin on cells (PMA-activated K562 cells; U87MG cells) (human) (UniProt P08648); test: flow cytometry on PMA-activated K562 cells, hybridoma supernatant
[5] = target: purified recombinant human α5β1 integrin heterodimer, 6×His tagged (rh-α5β1; Acro Biosystems, cat. no. IT1-H52W5) (human) (UniProt P08648); test: BLI (Octet), supernatant mAb on anti-mouse IgG Fc sensor, 20 nM rh-α5β1
Sequence of purified recombinant human α5β1 integrin heterodimer, 6×His tagged (rh-α5β1; Acro Biosystems, cat. no. IT1-H52W5) (human) (P08648 42-995 limits assumed, form in doubt, chain 1 of 2): as the sequence (P08648 42-995 limits assumed, form in doubt, chain 1 of 2) above

T1 sequence (P11688 45-999 limits assumed, form in doubt, chain 1 of 2): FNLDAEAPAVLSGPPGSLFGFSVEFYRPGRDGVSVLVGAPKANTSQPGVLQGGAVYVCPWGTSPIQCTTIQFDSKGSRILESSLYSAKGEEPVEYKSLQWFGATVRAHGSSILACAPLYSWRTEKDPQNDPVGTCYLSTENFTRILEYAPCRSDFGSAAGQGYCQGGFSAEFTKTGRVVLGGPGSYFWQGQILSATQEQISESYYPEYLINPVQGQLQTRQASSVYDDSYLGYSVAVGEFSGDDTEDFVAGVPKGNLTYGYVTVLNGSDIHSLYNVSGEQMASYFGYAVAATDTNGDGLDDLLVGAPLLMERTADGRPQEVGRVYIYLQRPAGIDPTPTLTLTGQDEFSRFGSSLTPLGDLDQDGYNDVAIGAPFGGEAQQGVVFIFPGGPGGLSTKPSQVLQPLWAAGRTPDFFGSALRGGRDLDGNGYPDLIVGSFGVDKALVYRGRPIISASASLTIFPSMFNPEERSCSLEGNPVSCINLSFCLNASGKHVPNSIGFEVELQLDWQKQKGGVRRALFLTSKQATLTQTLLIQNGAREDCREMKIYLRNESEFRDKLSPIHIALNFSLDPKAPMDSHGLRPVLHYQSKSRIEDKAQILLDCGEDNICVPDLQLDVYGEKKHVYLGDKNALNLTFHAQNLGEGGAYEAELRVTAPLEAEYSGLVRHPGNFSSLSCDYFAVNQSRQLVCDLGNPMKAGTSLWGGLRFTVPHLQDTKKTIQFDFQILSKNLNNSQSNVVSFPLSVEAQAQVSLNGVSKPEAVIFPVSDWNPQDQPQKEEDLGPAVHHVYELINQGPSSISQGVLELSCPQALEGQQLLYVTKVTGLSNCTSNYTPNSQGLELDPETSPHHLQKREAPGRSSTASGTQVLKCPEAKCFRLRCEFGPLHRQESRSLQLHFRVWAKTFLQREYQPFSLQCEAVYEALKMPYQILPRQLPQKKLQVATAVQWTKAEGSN
T1 sequence (chain, as listed by the source limits assumed, form in doubt, chain 2 of 2): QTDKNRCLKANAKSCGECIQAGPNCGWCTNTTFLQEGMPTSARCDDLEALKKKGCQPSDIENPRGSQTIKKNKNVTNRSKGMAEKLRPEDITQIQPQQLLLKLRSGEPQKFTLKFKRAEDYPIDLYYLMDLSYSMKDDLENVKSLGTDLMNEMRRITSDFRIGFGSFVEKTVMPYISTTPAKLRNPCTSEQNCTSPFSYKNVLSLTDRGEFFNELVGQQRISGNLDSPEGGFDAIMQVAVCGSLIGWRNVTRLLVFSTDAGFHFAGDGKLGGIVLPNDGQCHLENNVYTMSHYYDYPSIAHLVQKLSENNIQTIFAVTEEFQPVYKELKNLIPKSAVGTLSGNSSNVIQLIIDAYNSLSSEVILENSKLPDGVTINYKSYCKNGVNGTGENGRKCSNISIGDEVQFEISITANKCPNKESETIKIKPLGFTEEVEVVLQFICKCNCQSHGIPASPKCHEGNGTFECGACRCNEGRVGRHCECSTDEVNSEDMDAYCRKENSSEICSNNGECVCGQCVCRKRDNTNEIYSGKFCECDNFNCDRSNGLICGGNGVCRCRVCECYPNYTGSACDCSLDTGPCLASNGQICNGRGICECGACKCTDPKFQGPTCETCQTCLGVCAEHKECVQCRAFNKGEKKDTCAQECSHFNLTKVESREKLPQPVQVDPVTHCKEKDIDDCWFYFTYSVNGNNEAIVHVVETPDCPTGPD

Absorbance 450 nm [1]: 0.0709 A450
Absorbance 450 nm [2]: 0.478 A450
Absorbance 450 nm [3]: 0.0793 A450
MFI [4]: 1970
Kd [5]: 4.67 nM
koff [5]: 0.00129 s⁻¹
kon [5]: 276000 M⁻¹ s⁻¹
B1: A-15C03 (antibody, part only; not given: light chain, V domains shown, part only)
VH: QVQLKESGPGLVAPSQSLSITCTISGFSLTTYGVHWVRQPPGKGLEWLVVIWSDGSTTYNSALKSRLNITKDNSKSQVFLKMNSLQTDDTAMYYCVRHGGLLRRDAMDYWGQGTSVTVSS
